Results published in paper PMC11933295, “Inhibiting hedgehog signal by a patched-1 antibody” (Cell Discovery, 2025).

Biological target: T1, engineered human PTCH1 protein (PTCH1*, a functional PTCH1 variant with two cytosolic loops truncated) (Homo sapiens, stabilised)
T1 chain: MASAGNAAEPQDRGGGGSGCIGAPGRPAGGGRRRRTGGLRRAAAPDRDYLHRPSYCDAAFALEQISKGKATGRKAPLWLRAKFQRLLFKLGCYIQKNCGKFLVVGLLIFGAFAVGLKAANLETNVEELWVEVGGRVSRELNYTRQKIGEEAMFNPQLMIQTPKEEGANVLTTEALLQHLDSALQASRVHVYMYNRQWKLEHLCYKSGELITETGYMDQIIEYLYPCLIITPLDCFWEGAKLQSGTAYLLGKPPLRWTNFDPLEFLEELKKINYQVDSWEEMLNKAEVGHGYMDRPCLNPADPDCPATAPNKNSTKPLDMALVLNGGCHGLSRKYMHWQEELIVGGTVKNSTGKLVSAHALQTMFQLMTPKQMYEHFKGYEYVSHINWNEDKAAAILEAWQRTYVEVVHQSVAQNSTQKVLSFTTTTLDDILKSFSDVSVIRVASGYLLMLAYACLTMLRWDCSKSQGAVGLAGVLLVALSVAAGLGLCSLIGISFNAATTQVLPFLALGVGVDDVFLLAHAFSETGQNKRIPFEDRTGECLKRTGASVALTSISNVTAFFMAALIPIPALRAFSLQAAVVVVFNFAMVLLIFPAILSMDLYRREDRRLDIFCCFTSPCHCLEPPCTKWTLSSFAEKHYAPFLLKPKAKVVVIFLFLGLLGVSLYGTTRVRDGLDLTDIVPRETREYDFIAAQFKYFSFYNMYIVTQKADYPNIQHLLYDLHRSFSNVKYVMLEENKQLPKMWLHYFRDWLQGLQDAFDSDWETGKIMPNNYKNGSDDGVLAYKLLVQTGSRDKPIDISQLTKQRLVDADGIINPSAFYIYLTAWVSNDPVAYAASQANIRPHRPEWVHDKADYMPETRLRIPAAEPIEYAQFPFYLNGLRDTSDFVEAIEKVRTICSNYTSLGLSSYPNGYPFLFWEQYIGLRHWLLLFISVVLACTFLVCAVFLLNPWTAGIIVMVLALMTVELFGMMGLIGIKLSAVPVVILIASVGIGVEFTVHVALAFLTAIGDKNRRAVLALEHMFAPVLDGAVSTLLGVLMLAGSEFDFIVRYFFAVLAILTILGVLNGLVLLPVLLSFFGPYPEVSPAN
Experiment: cell-based or functional assay

B1: Fab^6H3 (Fab, V domains shown)
VH: EVQLVESGGGLVKPGGSRKLSCVASGFTLSDYGMHWVRQAPEKGLEWVAYIGSDSYTIYHADTMKGRFTISRDNAKNTLFLQMTSLRSEDTAMYYCGRNYGMDYWGQGTS
VL: VLTQSPAIMSASLGERVTLTCTASSSVTSSYLHWYQQKPGSSPKLWIYSTSNLPFGVSPRFSGSGSGTSFSLTISSMEAEDAATYYCHQFHRSPYTFGGGTK
With B1 as the binder, how does the “IC50 of the dose-dependent inhibition of HH signaling, Dual-Luciferase Reporter Assay in SHH-Light II cells; pair blocked: SHH with PTCH1” value read?
The value was roughly 77.8 nM.
